Numbering of substitutions follows the chain as printed.
B1: LM609 grafted antibody Fab (parent molecule) (Fab, V domains shown)
VH: QVQLVESGGGVVQPGRSLRLSCAASGFTFSSYDMSWVRQAPGKGLEWVAKVSSGGGSTYYLDTVQGRFTISRDNSKNTLYLQMNSLRAEDTAVYYCARHNYGSFAYWGQGTTVTVSS
VL: EIVLTQSPATLSLSPGERATLSCQASQSISNHLHWYQQRPGQAPRLLIRYRSQSISGIPARFSGSGSGTDFTLTISSLEPEDFAVYYCQQSGSWPHTFGGGTKVEIK
notes: Fab expressed from M13 phage vector in E. coli, purified on protein A; also called LM609 grafted Fab; wild type
B2: LM609 grafted antibody combinatorial clone C59 (Fab, V domains shown)
VH: B1 VH with L61P, Y106D
VL: B1 VL with H32F
notes: Fab
B3: LM609 grafted antibody variant S102 (Fab, V domains shown)
VH: B1 VH with Y106S
VL: B1 VL
notes: Fab; also called clone S102

Assays:
[1] = biological target: integrin αvβ3 on cells (M21 human melanoma cells; human umbilical vein endothelial cells) (human) (UniProt P06756); assay: cell-based or functional assay
integrin αvβ3 on cells (M21 human melanoma cells; human umbilical vein endothelial cells) (human), sequence (P06756 31-1048, chain 1 of 2): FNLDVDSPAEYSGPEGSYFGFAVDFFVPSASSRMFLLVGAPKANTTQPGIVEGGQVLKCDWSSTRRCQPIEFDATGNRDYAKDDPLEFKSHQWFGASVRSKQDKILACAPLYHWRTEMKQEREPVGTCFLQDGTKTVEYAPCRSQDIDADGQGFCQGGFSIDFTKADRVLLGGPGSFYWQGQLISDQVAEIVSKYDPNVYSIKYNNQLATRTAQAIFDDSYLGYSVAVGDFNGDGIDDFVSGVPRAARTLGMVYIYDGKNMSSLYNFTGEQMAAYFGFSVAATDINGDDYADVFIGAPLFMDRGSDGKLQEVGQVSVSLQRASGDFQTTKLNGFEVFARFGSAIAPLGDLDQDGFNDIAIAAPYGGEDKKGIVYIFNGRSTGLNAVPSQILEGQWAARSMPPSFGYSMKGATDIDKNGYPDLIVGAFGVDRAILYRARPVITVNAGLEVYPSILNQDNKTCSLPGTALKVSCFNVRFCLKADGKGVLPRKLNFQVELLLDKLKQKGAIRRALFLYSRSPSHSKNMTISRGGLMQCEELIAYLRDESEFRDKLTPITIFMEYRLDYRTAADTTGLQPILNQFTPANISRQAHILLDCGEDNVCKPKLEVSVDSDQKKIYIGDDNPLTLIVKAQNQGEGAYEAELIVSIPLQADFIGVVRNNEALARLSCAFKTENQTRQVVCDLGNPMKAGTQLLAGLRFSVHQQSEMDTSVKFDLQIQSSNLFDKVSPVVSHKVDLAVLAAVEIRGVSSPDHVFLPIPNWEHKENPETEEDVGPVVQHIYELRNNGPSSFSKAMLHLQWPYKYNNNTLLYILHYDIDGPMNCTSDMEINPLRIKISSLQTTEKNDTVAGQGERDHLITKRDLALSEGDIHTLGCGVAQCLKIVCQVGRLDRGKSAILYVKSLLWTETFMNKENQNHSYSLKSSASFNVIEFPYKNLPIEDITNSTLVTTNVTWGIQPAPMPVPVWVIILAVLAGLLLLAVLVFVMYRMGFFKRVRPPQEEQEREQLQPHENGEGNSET
integrin αvβ3 on cells (M21 human melanoma cells; human umbilical vein endothelial cells) (human), sequence (P05106 27-788, chain 2 of 2, further chain): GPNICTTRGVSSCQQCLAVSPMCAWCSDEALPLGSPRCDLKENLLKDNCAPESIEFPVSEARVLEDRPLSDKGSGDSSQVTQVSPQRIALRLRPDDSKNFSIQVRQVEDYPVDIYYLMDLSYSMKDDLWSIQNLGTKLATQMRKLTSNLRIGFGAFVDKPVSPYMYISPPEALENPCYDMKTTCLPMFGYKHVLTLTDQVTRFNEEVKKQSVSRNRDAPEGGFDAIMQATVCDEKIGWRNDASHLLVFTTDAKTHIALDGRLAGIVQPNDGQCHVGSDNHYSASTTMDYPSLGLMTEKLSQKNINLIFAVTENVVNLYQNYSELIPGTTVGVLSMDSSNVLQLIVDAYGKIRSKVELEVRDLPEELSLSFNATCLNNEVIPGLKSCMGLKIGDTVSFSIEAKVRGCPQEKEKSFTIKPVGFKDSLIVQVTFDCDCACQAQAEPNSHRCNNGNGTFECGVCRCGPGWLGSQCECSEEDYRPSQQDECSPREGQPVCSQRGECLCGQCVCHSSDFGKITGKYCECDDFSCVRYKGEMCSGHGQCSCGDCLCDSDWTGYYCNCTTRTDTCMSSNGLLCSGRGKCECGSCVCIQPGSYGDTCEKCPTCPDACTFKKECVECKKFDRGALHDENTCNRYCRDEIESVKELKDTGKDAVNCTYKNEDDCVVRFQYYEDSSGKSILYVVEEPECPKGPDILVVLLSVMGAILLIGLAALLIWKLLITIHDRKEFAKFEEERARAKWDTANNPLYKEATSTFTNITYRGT

[2] = biological target: T1, integrin αvβ3 (human vitronectin receptor), purified from human placenta (human, UniProt P06756 31-1048; P05106 27-788); assay: ELISA titration of bacterial cell lysate containing Fab on immobilized αvβ3, detection with goat anti-human kappa-alkaline phosphatase
T1 construct: mature; coated on ELISA plates or immobilized on a BIAcore chip; Biotinylated in capture lift and capture ELISA screens; also called avb3; αvβ3 receptor
T1 sequence (P06756 31-1048, form in doubt, chain 1 of 2): as the sequence (P06756 31-1048, chain 1 of 2) above
T1 sequence (P05106 27-788, form in doubt, chain 2 of 2): as the sequence (P05106 27-788, chain 2 of 2, further chain) above

[3] = biological target: T1, integrin αvβ3 (human vitronectin …); assay: ELISA on immobilized αvβ3 incubated with 0.1 µg/ml biotinylated fibrinogen (the blocked ligand) and various concentrations of Fab for 3 h at 37 °C; bound fibrinogen detected with NeutrAvidin-alkaline phosphatase

Row | Molecule | EC50 (read off the curve) [2] [µg/mL] | further results
1 | monoclonal antibody LM609 (murine IgG) |  | decrease in vitronectin-induced migration of human umbilical vein endothelial cells (transwell), antibody at 5 µg/ml [1]: 60%
2 | B1 | ~0.4 | 
3 | B2 |  | IC50 (read off the curve) [3]: ~0.1 µg/mL
4 | B3 | ~0.1 | 
